Measurements reported in patent publication US20180258140A1, “NEW DODECAPEPTIDES AND MICROCAPSULES FUNCTIONALISED WITH THEM TARGETED TO FIBROBLASTS” (Infinitec Activos, S.L., priority 2015, published 2018).
*: point of attachment. Palmitoyl = CCCCCCCCCCCCCCCC(=O)*

How the values were obtained:
Human dermal fibroblasts = assay: Cytotoxicity assay (MTT) in fibroblasts; assay type: cell-based; conditions: positive control 0.1% SDS, 48h incubation
Description: (§1) Human dermal fibroblasts and human keratinocytes were used. The isolated cells were cultured in DMEM culture medium supplemented with 10% FCS and were incubated at 37° C. for maintenance treatment. Untreated cells were used as negative control. The positive control was 0.1% SDS. The microcapsules as obtained in Example 2 were tested in the DMEM culture medium at 0.03%. These weight percentages refer to the weight of the microcapsule in relation to the total weight. Cells were seeded at 20000 cells per well in a 96-well plate. 24 hours after seeding, cells were incubated under the conditions described above. After 48h of incubation at 37° C., the culture medium was removed and the MTT reagent was added. Cells were incubated 2 hours at 37° C. DMSO was then added and the absorbance of the formed formazan salt was measured at A 570 nm. Lower absorbance values correspond to cells with lower metabolic activity, which correlates with an increased damage and, therefore, with an increased cytotoxic effect. Thus, the amount of living cells is proportional to the amount of formazan produced.

human keratinocytes = assay: Cytotoxicity assay (MTT) in keratinocytes; assay type: cell-based; conditions: positive control 0.1% SDS, 48h incubation
Description: as §1

FGFR2 Kinase = FGFR2 Kinase (Homo sapiens, UniProt P21802); assay: FGFR2 kinase inhibition; assay type: biochemical; conditions: percent inhibition of control enzyme activity; test concentration not given
Chain of FGFR2 Kinase (P21802 22-821): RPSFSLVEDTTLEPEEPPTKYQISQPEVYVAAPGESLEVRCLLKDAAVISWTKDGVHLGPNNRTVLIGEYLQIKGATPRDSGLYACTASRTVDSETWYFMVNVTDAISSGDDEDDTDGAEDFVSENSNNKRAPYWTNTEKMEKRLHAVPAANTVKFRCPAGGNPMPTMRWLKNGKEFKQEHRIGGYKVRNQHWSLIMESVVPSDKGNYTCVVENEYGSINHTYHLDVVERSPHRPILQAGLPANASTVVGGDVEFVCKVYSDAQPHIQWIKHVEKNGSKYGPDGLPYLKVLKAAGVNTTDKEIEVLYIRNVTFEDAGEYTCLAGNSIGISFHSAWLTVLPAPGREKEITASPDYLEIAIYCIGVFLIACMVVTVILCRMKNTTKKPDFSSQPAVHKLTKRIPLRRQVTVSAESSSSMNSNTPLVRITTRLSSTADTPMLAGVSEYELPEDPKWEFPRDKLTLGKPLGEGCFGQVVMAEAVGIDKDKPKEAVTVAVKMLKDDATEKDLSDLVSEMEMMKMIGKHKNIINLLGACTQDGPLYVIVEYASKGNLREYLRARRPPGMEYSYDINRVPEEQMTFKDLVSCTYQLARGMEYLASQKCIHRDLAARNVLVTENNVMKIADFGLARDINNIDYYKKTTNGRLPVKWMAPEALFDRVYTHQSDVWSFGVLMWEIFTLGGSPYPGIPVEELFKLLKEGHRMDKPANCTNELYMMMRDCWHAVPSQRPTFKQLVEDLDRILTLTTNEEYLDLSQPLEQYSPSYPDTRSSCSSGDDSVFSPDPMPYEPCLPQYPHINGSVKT
Description: [The source words this procedure for another target and reports this target under the same test.] Evaluation of the effects of the dodecapeptides of the invention on the activity of the human FGFR1 kinase were quantified by measuring the phosphorylation of the substrate Ulight-CAGAGAIETDKEYYTVKD (JAK1) using a human recombinant enzyme expressed in insect cells and the LANCE® detection method using the protocol described below:
The peptide to be tested, the reference compound or water (control) are mixed with the enzyme (0.252 ng) in a buffer containing 40 mM Hepes/Tris (pH 7.4), 0.8 mM EGTA/Tris, 8 mM MgCl2, 1.6 mM DTT and 0.008% Tween 20 (For control basal measurements, the enzyme is omitted from the reaction mixture). Thereafter, the reaction is initiated by adding 100 nM of the substrate Ulight-CAGAGAIETDKEYYTVKD (SEQ ID NO: 13) (JAK-1 peptide) and 100 μM ATP, and the mixture is incubated for 60 min at room temperature. Following incubation, the reaction is stopped by adding 13 mM EDTA. After 5 min, the anti-phospho-PT66 antibody labeled with europium chelate (EU-W1024-labeled Anti-Phosphotyrosine Antibody PT66, from Perkin Elmer) is added. After 60 more min, the fluorescence transfer is measured at λex=337 nm, λem=620 nm and λem=665 nm using a microplate reader (Envision, Perkin Elmer).
The enzyme activity is determined by dividing the signal measured at 665 nm by that measured at 620 nm (ratio). The results are expressed as a percent inhibition of the control enzyme activity.
The standard inhibitory reference compound is staurosporine, which is tested in each experiment at several concentrations to obtain an inhibition curve from which its IC50 value is calculated.
Results showing an inhibition (or stimulation for assays run in basal conditions) higher than 20% are considered to represent significant effects of the peptides of the invention.

Compound	Fibroblasts % cell viability (Human dermal fibroblasts) [%]	Keratinocytes % cell viability (human keratinocytes) [%]	FGFR2 Kinase % Inhibition (FGFR2 Kinase) [%]
CCCCCCCCCCCCOS(=O)(=O)[O-].[Na+] [SDS, Sodium dodecyl sulfate]	25.0	12	–
Palm-Lys-Ala-Asn-Leu-Pro-Leu-Gly-Asn-Tyr-Lys-Lys-Pro-NH2 (Palmitoyl-KANLPLGNYKKP-NH2; SMILES CCCCCCCCCCCCCCCC(=O)N[C@@H](CCCCN)C(=O)N[C@@H](C)C(=O)N[C@@H](CC(N)=O)C(=O)N[C@@H](CC(C)C)C(=O)N1CCC[C@H]1C(=O)N[C@@H](CC(C)C)C(=O)NCC(=O)N[C@@H](CC(N)=O)C(=O)N[C@@H](Cc1ccc(O)cc1)C(=O)N[C@@H](CCCCN)C(=O)N[C@@H](CCCCN)C(=O)N1CCC[C@H]1C(N)=O) [Peptide 2]	–	–	96.3
Palm-Lys-Phe-Ala-Leu-Pro-Leu-Gly-Asn-Tyr-Lys-Lys-Pro-NH2 (Palmitoyl-KFALPLGNYKKP-NH2; SMILES CCCCCCCCCCCCCCCC(=O)N[C@@H](CCCCN)C(=O)N[C@@H](Cc1ccccc1)C(=O)N[C@@H](C)C(=O)N[C@@H](CC(C)C)C(=O)N1CCC[C@H]1C(=O)N[C@@H](CC(C)C)C(=O)NCC(=O)N[C@@H](CC(N)=O)C(=O)N[C@@H](Cc1ccc(O)cc1)C(=O)N[C@@H](CCCCN)C(=O)N[C@@H](CCCCN)C(=O)N1CCC[C@H]1C(N)=O) [Peptide 3]	–	–	98.7
Palm-Lys-Phe-Asn-Ala-Pro-Leu-Gly-Asn-Tyr-Lys-Lys-Pro-NH2 (Palmitoyl-KFNAPLGNYKKP-NH2; SMILES CCCCCCCCCCCCCCCC(=O)N[C@@H](CCCCN)C(=O)N[C@@H](Cc1ccccc1)C(=O)N[C@@H](CC(N)=O)C(=O)N[C@@H](C)C(=O)N1CCC[C@H]1C(=O)N[C@@H](CC(C)C)C(=O)NCC(=O)N[C@@H](CC(N)=O)C(=O)N[C@@H](Cc1ccc(O)cc1)C(=O)N[C@@H](CCCCN)C(=O)N[C@@H](CCCCN)C(=O)N1CCC[C@H]1C(N)=O) [Peptide 4]	–	–	87.5
Palm-Lys-Phe-Asn-Leu-Ala-Leu-Gly-Asn-Tyr-Lys-Lys-Pro-NH2 (Palmitoyl-KFNLALGNYKKP-NH2; SMILES CCCCCCCCCCCCCCCC(=O)N[C@@H](CCCCN)C(=O)N[C@@H](Cc1ccccc1)C(=O)N[C@@H](CC(N)=O)C(=O)N[C@@H](CC(C)C)C(=O)N[C@@H](C)C(=O)N[C@@H](CC(C)C)C(=O)NCC(=O)N[C@@H](CC(N)=O)C(=O)N[C@@H](Cc1ccc(O)cc1)C(=O)N[C@@H](CCCCN)C(=O)N[C@@H](CCCCN)C(=O)N1CCC[C@H]1C(N)=O) [Peptide 5]	–	–	91.1
Palm-Lys-Phe-Asn-Leu-Pro-Ala-Gly-Asn-Tyr-Lys-Lys-Pro-NH2 (Palmitoyl-KFNLPAGNYKKP-NH2; SMILES CCCCCCCCCCCCCCCC(=O)N[C@@H](CCCCN)C(=O)N[C@@H](Cc1ccccc1)C(=O)N[C@@H](CC(N)=O)C(=O)N[C@@H](CC(C)C)C(=O)N1CCC[C@H]1C(=O)N[C@@H](C)C(=O)NCC(=O)N[C@@H](CC(N)=O)C(=O)N[C@@H](Cc1ccc(O)cc1)C(=O)N[C@@H](CCCCN)C(=O)N[C@@H](CCCCN)C(=O)N1CCC[C@H]1C(N)=O) [Peptide 6]	–	–	98.8
Palm-Lys-Phe-Asn-Leu-Pro-Leu-Ala-Asn-Tyr-Lys-Lys-Pro-NH2 (Palmitoyl-KFNLPLANYKKP-NH2; SMILES CCCCCCCCCCCCCCCC(=O)N[C@@H](CCCCN)C(=O)N[C@@H](Cc1ccccc1)C(=O)N[C@@H](CC(N)=O)C(=O)N[C@@H](CC(C)C)C(=O)N1CCC[C@H]1C(=O)N[C@@H](CC(C)C)C(=O)N[C@@H](C)C(=O)N[C@@H](CC(N)=O)C(=O)N[C@@H](Cc1ccc(O)cc1)C(=O)N[C@@H](CCCCN)C(=O)N[C@@H](CCCCN)C(=O)N1CCC[C@H]1C(N)=O) [Peptide 7]	–	–	98.4
Palm-Lys-Phe-Asn-Leu-Pro-Leu-Gly-Ala-Tyr-Lys-Lys-Pro-NH2 (Palmitoyl-KFNLPLGAYKKP-NH2; SMILES CCCCCCCCCCCCCCCC(=O)N[C@@H](CCCCN)C(=O)N[C@@H](Cc1ccccc1)C(=O)N[C@@H](CC(N)=O)C(=O)N[C@@H](CC(C)C)C(=O)N1CCC[C@H]1C(=O)N[C@@H](CC(C)C)C(=O)NCC(=O)N[C@@H](C)C(=O)N[C@@H](Cc1ccc(O)cc1)C(=O)N[C@@H](CCCCN)C(=O)N[C@@H](CCCCN)C(=O)N1CCC[C@H]1C(N)=O) [Peptide 8]	–	–	98.8
Palm-Lys-Phe-Asn-Leu-Pro-Leu-Gly-Asn-Ala-Lys-Lys-Pro-NH2 (Palmitoyl-KFNLPLGNAKKP-NH2; SMILES CCCCCCCCCCCCCCCC(=O)N[C@@H](CCCCN)C(=O)N[C@@H](Cc1ccccc1)C(=O)N[C@@H](CC(N)=O)C(=O)N[C@@H](CC(C)C)C(=O)N1CCC[C@H]1C(=O)N[C@@H](CC(C)C)C(=O)NCC(=O)N[C@@H](CC(N)=O)C(=O)N[C@@H](C)C(=O)N[C@@H](CCCCN)C(=O)N[C@@H](CCCCN)C(=O)N1CCC[C@H]1C(N)=O) [Peptide 9]	–	–	99.4
Palm-Lys-Phe-Asn-Leu-Pro-Leu-Gly-Asn-Tyr-Ala-Lys-Pro-NH2 (Palmitoyl-KFNLPLGNYAKP-NH2; SMILES CCCCCCCCCCCCCCCC(=O)N[C@@H](CCCCN)C(=O)N[C@@H](Cc1ccccc1)C(=O)N[C@@H](CC(N)=O)C(=O)N[C@@H](CC(C)C)C(=O)N1CCC[C@H]1C(=O)N[C@@H](CC(C)C)C(=O)NCC(=O)N[C@@H](CC(N)=O)C(=O)N[C@@H](Cc1ccc(O)cc1)C(=O)N[C@@H](C)C(=O)N[C@@H](CCCCN)C(=O)N1CCC[C@H]1C(N)=O) [Peptide 10]	–	–	93.4
Palm-Lys-Phe-Asn-Leu-Pro-Leu-Gly-Asn-Tyr-Lys-Ala-Pro-NH2 (Palmitoyl-KFNLPLGNYKAP-NH2; SMILES CCCCCCCCCCCCCCCC(=O)N[C@@H](CCCCN)C(=O)N[C@@H](Cc1ccccc1)C(=O)N[C@@H](CC(N)=O)C(=O)N[C@@H](CC(C)C)C(=O)N1CCC[C@H]1C(=O)N[C@@H](CC(C)C)C(=O)NCC(=O)N[C@@H](CC(N)=O)C(=O)N[C@@H](Cc1ccc(O)cc1)C(=O)N[C@@H](CCCCN)C(=O)N[C@@H](C)C(=O)N1CCC[C@H]1C(N)=O) [Peptide 11]	–	–	89.9
Palm-Lys-Phe-Asn-Leu-Pro-Leu-Gly-Asn-Tyr-Lys-Lys-Ala-NH2 (Palmitoyl-KFNLPLGNYKKA-NH2; SMILES CCCCCCCCCCCCCCCC(=O)N[C@@H](CCCCN)C(=O)N[C@@H](Cc1ccccc1)C(=O)N[C@@H](CC(N)=O)C(=O)N[C@@H](CC(C)C)C(=O)N1CCC[C@H]1C(=O)N[C@@H](CC(C)C)C(=O)NCC(=O)N[C@@H](CC(N)=O)C(=O)N[C@@H](Cc1ccc(O)cc1)C(=O)N[C@@H](CCCCN)C(=O)N[C@@H](CCCCN)C(=O)N[C@@H](C)C(N)=O) [Peptide 12]	–	–	90.1
Palm-Lys-Phe-Asn-Leu-Pro-Leu-Gly-Asn-Tyr-Lys-Lys-Pro-NH2 (Palmitoyl-KFNLPLGNYKKP-NH2; SMILES CCCCCCCCCCCCCCCC(=O)N[C@@H](CCCCN)C(=O)N[C@@H](Cc1ccccc1)C(=O)N[C@@H](CC(N)=O)C(=O)N[C@@H](CC(C)C)C(=O)N1CCC[C@H]1C(=O)N[C@@H](CC(C)C)C(=O)NCC(=O)N[C@@H](CC(N)=O)C(=O)N[C@@H](Cc1ccc(O)cc1)C(=O)N[C@@H](CCCCN)C(=O)N[C@@H](CCCCN)C(=O)N1CCC[C@H]1C(N)=O) [Peptide 1]	–	–	95.4
